What all share (test): SEC; HiLoad Superdex 200 26/60 gel-filtration column, 50 mM NaCl, 20 mM Tris-HCl pH 8.0; oligomeric state read from the elution
(In general: Size exclusion chromatography separates by hydrodynamic size, large species first.)

The target in series [1] is carbamate kinase (CK) from Mycoplasma penetrans (Mycoplasma penetrans).
In series [2] the target is short-ADI (arginine deiminase from Mycoplasma penetrans, form initiating at Met43 and ending at Lys452) (Mycoplasma penetrans).
Series [3] concerns the molecule itself.

Take “carbamate kinase (CK) from Mycoplasma penetrans (enzyme)”: in series [1], the stoichiometry N (as a rule, the number of molecules, sites or subunits per partner or assembly) was determined as 2.

Take “short-ADI (arginine deiminase from Mycoplasma penetrans, form initiating at Met43 and ending at Lys452) (enzyme)”: the stoichiometry N in series [2] was 2.

B1: ornithine carbamoyltransferase (OTC) from Mycoplasma penetrans (enzyme, UniProt Q8EVF5 1-342, looked up)
chain: MPVNLKGRSLDSLLNFTTEEVQHLIDLSIDLKKAKYQGLHINNRPLVGKNIAILFQKDSTRTRCAFEVAASDLGAGVTYIGPSGSNMGKKESIEDTAKVLGRFYDGIEFRGFAQSDVDALVKYSGVPVWNGLTDDEHPTQIIADFMTMKEKFGNLKNKKIVFIGDYKNNVGVSTMIGAAFNGMHVVMCGPDNYKNEIDKNVLAKCIELFKRNGGSLRFSTDKILAAQDADVIYTDVWVSLGEPFELFDKRIGELKNFQVDMNMIKAAKNDVIFLHCLPAFHDDHTSFSKEVATTLGAKYPIVAKGEMEVTDEVFQSLHNKAFDQAENRMHSIKAIILSTIGY
notes: ornithine carbamoyltransferase (OTC, EC 2.1.3.3), arcB gene product of Mycoplasma penetrans strain GTU-54; traced from Met1 to Tyr342; TGA codons for Trp129 and Trp237 changed to TGG (no change of the amino acids); Dodecamer of four catalytic homotrimers; also called MpOTC; ornitine transcarbamylase; copies: 12
Regarding B1, in series [3], the “stoichiometry N” value turned out to be 12.

The record behind these values is PMC3474736, “Structural Characterization of the Enzymes Composing the Arginine Deiminase Pathway in Mycoplasma penetrans” (PLoS ONE, 2012).
